Test results published in patent US20250312491A1, “BASE EDITING OF TRANSTHYRETIN GENE” (Beam Therapeutics Inc., priority 2022, published 2025).
Oligonucleotides are written 5' to 3', each unit as a sugar letter and its base; * is a phosphorothioate linkage, no mark a phosphodiester; rarer units and linkages stand in square brackets, end groups in braces. Plain capitals give the bases only. m = 2'-O-methyl; r = 2'-OH (RNA)

T1: Asialoglycoprotein receptor (ASGP-R) (Homo sapiens, UniProt P07306)
T1 sequence (P07306 1-291): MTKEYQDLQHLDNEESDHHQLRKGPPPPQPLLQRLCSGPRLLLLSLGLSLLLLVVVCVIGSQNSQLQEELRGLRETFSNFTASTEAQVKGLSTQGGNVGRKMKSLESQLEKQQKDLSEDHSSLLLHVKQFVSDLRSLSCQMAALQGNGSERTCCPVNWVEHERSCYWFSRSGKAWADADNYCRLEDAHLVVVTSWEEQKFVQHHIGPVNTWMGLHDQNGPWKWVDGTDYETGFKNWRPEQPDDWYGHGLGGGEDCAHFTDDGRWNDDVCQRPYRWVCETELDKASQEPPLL
T1 sequence (P07307 1-311 partner): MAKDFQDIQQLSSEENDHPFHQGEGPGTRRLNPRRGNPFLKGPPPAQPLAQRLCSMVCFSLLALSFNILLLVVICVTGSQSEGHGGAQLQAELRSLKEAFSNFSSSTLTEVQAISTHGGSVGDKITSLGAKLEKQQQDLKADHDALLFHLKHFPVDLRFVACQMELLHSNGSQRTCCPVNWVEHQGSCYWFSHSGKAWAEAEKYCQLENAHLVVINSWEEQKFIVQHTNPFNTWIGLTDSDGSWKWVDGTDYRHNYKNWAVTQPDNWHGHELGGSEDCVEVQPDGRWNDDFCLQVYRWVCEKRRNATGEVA


Experiments:
[1] = target: T1, Asialoglycoprotein receptor (ASGP-R); details: ligand: N-acetylgalactosamine (GalNAc); cited from earlier work
TTR on-target site = test: Off-target validation in human primary hepatocytes: on-target site editing; assay type: cell-based; details: for on-target site editing efficiency (in words): treated vs control groups, human primary hepatocytes
Experimental: (§2) Several candidate off-target sites were analyzed for off-target editing in human primary hepatocytes.

human TTR gene = test: Base editing in primary human hepatocytes co-transfected with gRNA and ABE8.8 mRNA, NGS; assay type: cell-based; details: for Human hepatocytes- Editing % 625, rep 1 / Human hepatocytes- Editing % 625, rep 2: 625 ng/RNA/mL; for Human hepatocytes- Editing % 625, rep 1 / Human hepatocytes- Editing % 1250, rep 1 / Human hepatocytes- Editing % 2500, rep 1: rep 1, 3 days after transfection; for Human hepatocytes- Editing % 625, rep 2 / Human hepatocytes- Editing % 1250, rep 2 / Human hepatocytes- Editing % 2500, rep 2: rep 2, 3 days after transfection; for Human hepatocytes- Editing % 1250, rep 1 / Human hepatocytes- Editing % 1250, rep 2: 1250 ng/RNA/mL; for Human hepatocytes- Editing % 2500, rep 1 / Human hepatocytes- Editing % 2500, rep 2: 2500 ng/RNA/mL; for editing activity in human primary hepatocytes (in words): ABE8.8 mRNA co-transfection
Excerpt: With this example, gRNA sequences were identified that permit ABE8.8 (and other ABE variants containing Streptococcus pyogenes Cas9, such as ABE7.10, or another Cas protein that can use the NGG PAM) to either: 1) disrupt the start codon, or 2) disrupt splice sites, whether donors or acceptors, via A→G editing within its editing window (roughly positions 4 to 7 in the 20-nt protospacer region of DNA). Five sequences were identified throughout the human TTR gene (Table 1). gRNAs were synthesized matching each of the protospacer sequences and otherwise conforming to the standard 100-nt Streptococcus pyogenes CRISPR gRNA sequence, with each gRNA molecule having a minimal degree of chemical modifications (specified in Table 1).
(§1) The mRNA, and corresponding amino acid, sequence of the ABE8.8 (MA004) used in shown below in Table 11. Three days after transfection, genomic DNA was harvested from the hepatocytes, and assessed for base editing with next-generation sequencing of PCR amplicons generated around the target splice site. […] See FIGS. 5A-5C, FIG. 6, and Tables 2-3.

[2] = system: candidate off-target sites; test: Off-target validation in human primary hepatocytes: candidate off-target site editing; assay type: cell-based
Experimental: With a view towards establishing the safety of a base-editing therapy knocking down of TTR in the human liver in vivo, off-target mutagenesis analysis is assessed in primary human hepatocytes. […] The in vitro biochemical assay ONE-seq was used to generate a list of candidate off-target sites and to determine the propensity of a ribonucleoprotein comprising the ABE8.8 base editor protein and each of the three protospacer guides sequences (GA457, GA460, and GA461) to cleave oligonucleotides in a library.
For each site, the total number of edited reads was normalized to the total number of edited reads assigned to the on-target site, and this ratio defines the ONE-seq score for the site. Sites were ranked by ONE-seq score, and those with a score equal to or larger than 0.001, were selected for validation. A score equal to or larger than 0.001 encompasses sites that have down to 1000-fold less editing activity in the biochemical assay compared to editing of the on-target site. This threshold is based on the premise that in cells, if there is 100% on-target editing, 1/1000-fold less editing activity would translate to <0.1% off-target editing, which falls below the lower limit of detection of editing by NGS.
as §2

[3] = system: cynomolgus monkey TTR gene; test: Base editing in primary cynomolgus hepatocytes transfected with gRNA and ABE8.8 mRNA, NGS; assay type: cell-based; details: for Cyno hepatocytes- Editing % 156.25: 156.25 ng/RNA/mL; for Cyno hepatocytes- Editing % 312.5: 312.5 ng/RNA/mL; for Cyno hepatocytes- Editing % 625: 625 ng/RNA/mL; for Cyno hepatocytes- Editing % 1250: 1250 ng/RNA/mL; for Cyno hepatocytes- Editing % 2500: 2500 ng/RNA/mL; for Cyno hepatocytes- Editing % 5000: 5000 ng/RNA/mL; for editing activity in cynomolgus primary hepatocytes (in words): ABE8.8 mRNA co-transfection
Excerpt: as §1

TTR gene = test: GA521 dose response base editing in primary human hepatocytes, NGS; assay type: cell-based; details: MessengerMax transfection, various doses total RNA (ng/ml), 3 days
Excerpt: Exemplary guide RNA GA521 was transfected into primary human hepatocytes using MessengerMax transfection. GA521 disrupts the start codon AUG of the TTR gene by editing it to ACG with an A-to-G base editor (e.g., ABE8.8; ABE8.8-m).
Three days after transfection, genomic DNA was harvested from the hepatocytes, and assessed for base editing with next-generation sequencing of PCR amplicons generated around the target splice site.
FIG. 29 depicts dose response for human gRNA GA521 in primary human hepatocytes. Percent base editing at various doses (ng/ml) total RNA was determined from NGS analysis. GA521 was the guide RNA.

[4] = GA459 On-target GCAACTTACCCAGAGGCAAA
[5] = GA460 On-target TATAGGAAAACCAGTGAGTC
[6] = GA457 site OT29 GACATCCTGTCAAGGATCAG
[7] = GA457 site OT31 GCCATAAGCCAAAGAATGAC

Molecule | on-target site editing efficiency (in words) (TTR on-target site) | Human hepatocytes- Editing % 625, rep 1 (human TTR gene) | Human hepatocytes- Editing % 625, rep 2 (human TTR gene) | Human hepatocytes- Editing % 1250, rep 1 (human TTR gene) | Human hepatocytes- Editing % 1250, rep 2 (human TTR gene) | Human hepatocytes- Editing % 2500, rep 1 (human TTR gene) | Human hepatocytes- Editing % 2500, rep 2 (human TTR gene) | off-target editing at candidate off-target sites (in words) ([2]; human primary hepatocytes) | Cyno hepatocytes- Editing % 156.25 [3] | Cyno hepatocytes- Editing % 312.5 [3] | Cyno hepatocytes- Editing % 625 [3] | Cyno hepatocytes- Editing % 1250 [3] | Cyno hepatocytes- Editing % 2500 [3] | Cyno hepatocytes- Editing % 5000 [3] | editing activity in cynomolgus primary hepatocytes (in words) [3] | editing activity in human primary hepatocytes (in words) (human TTR gene) | further results
CC(=O)NC1O[C@H](CO)[C@H](O)[C@H](O)[C@H]1O (stereo partly drawn) [N-Acetyl-D-Galactosylamine] | – | – | – | – | – | – | – | – | – | – | – | – | – | – | – | – | affinity for ASGP-R relative to D-Gal [1]: 50 fold
GA459: guide RNA, human TTR, protospacer GCAACTTACCCAGAGGCAAA (SEQ ID NO: 25), gRNA SEQ ID NO: 13 (nucleic acid, chemistry not given here) guide: GCAACTTACCCAGAGGCAAAGTTTTAGAGCTAGAAATAGCAAGTTAAAATAAGGCTAGTCCGTTATCAACTTGAAAAAGTGGCACCGAGTCGGTGCTTTT | high editing efficiency | 3.79% | 3.89% | 5.46% | 6.15% | 8.5% | 8.69% | little to no off-target editing | – | – | – | – | – | – | – | – | SUM Editing %-Human Primary Hepatocytes Treat rep 1 (TTR on-target site; [4]): 14.17%; SUM Editing %-Human Primary Hepatocytes Treat rep 2 (TTR on-target site; [4]): 14.29%
GA461: guide RNA, human/cyno TTR, protospacer TACTCACCTCTGCATGCTCA (SEQ ID NO: 27), gRNA SEQ ID NO: 15 (nucleic acid, chemistry not given here) guide: TACTCACCTCTGCATGCTCAGTTTTAGAGCTAGAAATAGCAAGTTAAAATAAGGCTAGTCCGTTATCAACTTGAAAAAGTGGCACCGAGTCGGTGCTTTT | high editing efficiency | 21.81% | 22.31% | 32.82% | 32.38% | 40.42% | 39.43% | little to no off-target editing | 0.07% | 7.45% | 13.16% | 19.46% | 29.8% | 37.53% | high editing activity | high editing activity | SUM Editing %-Human Primary Hepatocytes Treat rep 2 (TTR on-target site; GA461 On-target TACTCACCTCTGCATGCTCA): 58.9%
GA460: guide RNA, human/cyno TTR, protospacer TATAGGAAAACCAGTGAGTC (SEQ ID NO: 26), gRNA SEQ ID NO: 14 (nucleic acid, chemistry not given here) guide: TATAGGAAAACCAGTGAGTCGTTTTAGAGCTAGAAATAGCAAGTTAAAATAAGGCTAGTCCGTTATCAACTTGAAAAAGTGGCACCGAGTCGGTGCTTTT | high editing efficiency | 23.77% | 22.27% | 38.33% | 35.8% | 47.61% | 47.79% | little to no off-target editing | 1.62% | 11.22% | 18.44% | 31.71% | 38.25% | 40.16% | high editing activity | high editing activity | SUM Editing %-Human Primary Hepatocytes Treat rep 1 (TTR on-target site; [5]): 76.4%; SUM Editing %-Human Primary Hepatocytes Treat rep 2 (TTR on-target site; [5]): 74.3%
GA457: guide RNA, human TTR, protospacer GCCATCCTGCCAAGAATGAG (SEQ ID NO: 24), gRNA SEQ ID NO: 11 (nucleic acid, chemistry not given here) guide: GCCATCCTGCCAAGAATGAGGTTTTAGAGCTAGAAATAGCAAGTTAAAATAAGGCTAGTCCGTTATCAACTTGAAAAAGTGGCACCGAGTCGGTGCTTTT | high editing efficiency | 17.24% | 15.39% | 26.49% | 24.86% | 33.96% | 31.31% | – | – | – | – | – | – | – | – | high editing activity | % Editing-human primary hepatocytes Treated (TTR on-target site; GA457 On-target GCCATCCTGCCAAGAATGAG): 54.21%; % Editing-human primary hepatocytes Net (TTR on-target site; GA457 On-target GCCATCCTGCCAAGAATGAG, treated minus untreated): 54.1%; net editing at all off-target sites ([2]; 47 candidate off-target sites, human primary hepatocytes): less than 0.4%; % Editing-human primary hepatocytes Net ([2]; GA457 site OT3 GCCATACCTGCCATGAATGAG): 0.01%; % Editing-human primary hepatocytes Net [2, 6]: 0.05%; % Editing-human primary hepatocytes Treated [2, 6]: 0.21%; % Editing-human primary hepatocytes Net [2, 7]: 0.09%; % Editing-human primary hepatocytes Treated [2, 7]: 0.09%
GA521: modified guide RNA, human TTR, GA457 spacer with 2′-O-methyl modified tracr, SEQ ID NO: 11 (nucleic acid, chemistry not fully specified) guide: GCCATCCTGCCAAGAATGAGGTTTTAGAGCTAGAAATAGCAAGTTAAAATAAGGCTAGTCCGTTATCAACTTGAAAAAGTGGCACCGAGTCGGTGCTTTT | – | – | – | – | – | – | – | – | – | – | – | – | – | – | – | – | percent base editing in primary human hepatocytes (TTR gene): greater than 40%
GA458: guide RNA, cyno TTR, protospacer GCCATCCTGCCAAGAACGAG (SEQ ID NO: 28), gRNA SEQ ID NO: 29; cynomolgus equivalent of GA457 (nucleic acid) guide: mG*mC*mC*rArUrCrCrUrGrCrCrArArGrArArCrGrArGrGrUrUrUrUrArGrArGrCrUrArGrArArArUrArGrCrArArGrUrUrArArArArUrArArGrGrCrUrArGrUrCrCrGrUrUrArUrCrArArCrUrUrGrArArArArArGrUrGrGrCrArCrCrGrArGrUrCrGrGrUrGrCrU*mU*mU*mU | – | – | – | – | – | – | – | – | 6.06% | 10.65% | 16.07% | 22.74% | 27.25% | 35.91% | high editing activity | – | –
